Experimental findings from PMC2386288, “Kinetics and Ligand-Binding Preferences of Mycobacterium tuberculosis Thymidylate Synthases, ThyA and ThyX” (PLoS ONE, 2008) are described below.

Where two headings read alike, the source gives them in different places.

Data set [1] has as its system O=c1ccn([C@H]2C[C@H](O)[C@@H](COP(=O)(O)O)O2)c(=O)[nH]1. Briefly: purified protein.
The test system of data set [2] is NC(=O)C1=CN([C@@H]2O[C@H](COP(=O)(O)OP(=O)(O)OC[C@H]3O[C@@H](n4cnc5c(N)ncnc54)[C@H](OP(=O)(O)O)[C@@H]3O)[C@@H](O)[C@H]2O)C=CC1. The data set can be described thus: purified protein. Particulars: FAD.
The test system of data set [3] is Nc1nc2c(c(=O)[nH]1)N1CN(c3ccc(C(=O)N[C@@H](CCC(=O)O)C(=O)O)cc3)CC1CN2. Briefly: purified protein.
For data set [4], the target named is T1, ThyX (Mycobacterium tuberculosis, UniProt P9WG57).
T1 construct: C-terminal His-Tag
The data set can be described thus: biochemical.

For data set [5], the target named is T2, ThyA (Mycobacterium tuberculosis, UniProt P9WFR9).
T2 construct: N-terminal His-Tag
T2 sequence (P9WFR9 2-266): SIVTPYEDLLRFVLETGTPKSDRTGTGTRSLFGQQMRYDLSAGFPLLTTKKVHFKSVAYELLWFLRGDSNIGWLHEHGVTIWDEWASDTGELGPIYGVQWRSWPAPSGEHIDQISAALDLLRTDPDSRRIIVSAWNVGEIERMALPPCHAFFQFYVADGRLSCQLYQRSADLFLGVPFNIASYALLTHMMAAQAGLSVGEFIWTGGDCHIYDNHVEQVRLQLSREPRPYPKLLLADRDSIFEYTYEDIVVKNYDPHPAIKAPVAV
The data set can be described thus: biochemical.

Data set [6] deals with the molecule itself. The data set can be described thus: SEC. For orientation: In gel filtration, larger molecules generally elute earlier.

As for ThyX (Mycobacterium tuberculosis H37Rv), the Km (in general, the concentration of substrate that gives half-maximal velocity) amounted to 3 ± 0.7 µM in data set [1] (FAD), 47 ± 10 µM in data set [2] and 4.0 ± 1 µM in data set [3] (FAD).

Consider `O=c1[nH]c(=O)n([C@H]2C[C@H](O)[C@@H](COP(=O)(O)O)O2)cc1F` [FdUMP, 5-Fluoro-2′-deoxyuridine 5′-monophosphate], for which the Ki (usually the equilibrium dissociation constant of an inhibitor or competing ligand from its target) is 100 ± 10 nM in data set [4] and 2 ± 0.2 nM in data set [5].

Consider ThyA (Mycobacterium tuberculosis H37Rv), for which the Km in data set [1] (mTHF) was 4 ± 0.7 µM; in data set [3], 70 ± 30 µM.

B1: Histidine-tagged M. tuberculosis ThyX (flavin-dependent thymidylate synthase) (enzyme)
chain: MAETAPLRVQLIAKTDFLAPPDVPWTTDADGGPALVEFAGRACYQSWSKPNPKTATNAGYLRHIIDVGHFSVLEHASVSFYITGISRSCTHELIRHRHFSYSQLSQRYVPEKDSRVVVPPGMEDDADLRHILTEAADAARATYSELLAKLEAKFADQPNAILRRKQARQAARAVLPNATETRIVVTGNYRAWRHFIAMRASEHADVEIRRLAIECLRQLAAVAPAVFADFEVTTLADGTEVATSPLATEA
notes: also called FDTS
B1: the stoichiometry N (in general, the number of molecules, sites or subunits per partner or assembly) in data set [6] was found to be 4.
